Results on 1 molecule are retold here after publication PMC9569640 (2022).

Square brackets hold non-standard residues; d marks the D form. Ends that are not written are not given here. FAM = FAM, a fluorescent label attached at the N-terminus of the peptide; pY = N[C@@H](Cc1ccc(OP(=O)(O)O)cc1)C(=O)O

Holding throughout (assay): fluorescence polarization
One experiment addresses T1, CagA EPIYA-C 13-mer (Helicobacter pylori).
T1 chain: {FAM}-SPEPI[pY]ATIDDLG

For a further experiment, the target named is CagA EPIYA-A 13-mer (Helicobacter pylori).
The next experiment has as its target CagA EPIYA-D 13-mer (Helicobacter pylori).
The next experiment addresses T2, CagA EPIYA-CD 8-mer (Helicobacter pylori).
T2 chain: {FAM}-EPI[pY]ATID

The next experiment deals with T3, CagA EPIYA-B 13-mer (Helicobacter pylori).
T3 chain: {FAM}-PEEPI[pY]AQVAKKV

B1: SHIP2 SH2 (protein)
chain: APSWYHRDLSRAAAEELLARAGRDGSFLVRDSESVAGAFALCVLYQKHVHTYRILPDGEDFLAVQTSQGVPVRRFQTLGELIGLYAQPNQGLVCALLLPVEGE
Usually Kd stands for the free concentration of one partner at which half of the binding sites on the other are occupied at equilibrium, for simple one-to-one binding. High values mean a looser complex, low ones a tighter complex. As for B1, the dissociation constant (Kd) with CagA EPIYA-C 13-mer amounted to 2.96 µM; in the experiment with CagA EPIYA-A 13-mer, 23.4 µM; with CagA EPIYA-D 13-mer, 3.16 µM; in the experiment with CagA EPIYA-CD 8-mer, 4.45 µM; with CagA EPIYA-B 13-mer, 18.6 µM.
